# Assay results published in the supplement of paper PMC9112550, “Optimization of the antimicrobial peptide Bac7 by deep mutational scanning” (BMC Biology, 2022).
# Tested on: Escherichia coli TOP10
# Test: shrunken log2 fold change of peptide-encoding DNA abundance (4.5 h post-induction vs induction); higher = less antimicrobial activity (less host growth inhibition)
# Details: time post-induction: 4.5 h; library: site-saturation at positions 5, 18, 19, 20
# 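Further: peptides expressed intracellularly from a pBAD plasmid library in pooled LB shake-flask culture, induced with 0.3% L-arabinose, DNA abundance read by NGS, three biological replicates, DESeq2 with apeglm shrinkage.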
row,Sequence,shrunken log2 fold change
1,RRIRNRPPRLPRPRPRPGCIPRP,-0.173
2,RRIRRRPPRLPRPRPRPYNTPRP,-0.436
3,RRIRLRPPRLPRPRPRPFWMPRP,-0.0876
4,RRIRKRPPRLPRPRPRPQNKPRP,0.0275
5,RRIRQRPPRLPRPRPRPYWNPRP,-1.21
6,RRIRIRPPRLPRPRPRPAWQPRP,0.342
7,RRIRLRPPRLPRPRPRPYIQPRP,-0.337
8,RRIRFRPPRLPRPRPRPDETPRP,0.145
9,RRIRMRPPRLPRPRPRPCTAPRP,0.191
10,RRIRPRPPRLPRPRPRPSMHPRP,0.828
11,RRIRIRPPRLPRPRPRPHHMPRP,-1.2
12,RRIRGRPPRLPRPRPRPMFVPRP,0.39
13,RRIRERPPRLPRPRPRPFDGPRP,0.000346
14,RRIRRRPPRLPRPRPRPPYIPRP,0.141
15,RRIRSRPPRLPRPRPRPGKCPRP,0.0216
16,RRIRNRPPRLPRPRPRPFDIPRP,-0.701
17,RRIRCRPPRLPRPRPRPTHHPRP,0.126
18,RRIRKRPPRLPRPRPRPAYSPRP,-0.0338
19,RRIRPRPPRLPRPRPRPPKFPRP,0.0927
20,RRIRLRPPRLPRPRPRPPPSPRP,1.28
21,RRIRCRPPRLPRPRPRPIRDPRP,-0.231
22,RRIRLRPPRLPRPRPRPATPPRP,1.05
23,RRIRDRPPRLPRPRPRPGNIPRP,-0.0319
24,RRIRIRPPRLPRPRPRPTDYPRP,-0.223
25,RRIRFRPPRLPRPRPRPINGPRP,-0.0164

row,Sequence,shrunken log2 fold change
1,RRIRKRPPRLPRPRPRPVRFPRP,0.397
2,RRIRHRPPRLPRPRPRPTMSPRP,-0.11
3,RRIRVRPPRLPRPRPRPDIHPRP,-0.427
4,RRIRDRPPRLPRPRPRPINSPRP,-0.292
5,RRIRWRPPRLPRPRPRPIDQPRP,0.105
6,RRIRRRPPRLPRPRPRPIQDPRP,2.65
7,RRIRARPPRLPRPRPRPPENPRP,0.576
8,RRIRCRPPRLPRPRPRPNRVPRP,-0.206
9,RRIRSRPPRLPRPRPRPCNKPRP,-0.225
10,RRIRGRPPRLPRPRPRPIIAPRP,0.571
11,RRIRNRPPRLPRPRPRPHMKPRP,-0.243
12,RRIRPRPPRLPRPRPRPCWGPRP,-0.0769
13,RRIRGRPPRLPRPRPRPNLSPRP,0.477
14,RRIRTRPPRLPRPRPRPHFRPRP,-0.284
15,RRIRDRPPRLPRPRPRPQSAPRP,0.138
16,RRIRKRPPRLPRPRPRPCEIPRP,0.128
17,RRIRLRPPRLPRPRPRPNRDPRP,-0.124
18,RRIRIRPPRLPRPRPRPTHEPRP,-0.0459
19,RRIRHRPPRLPRPRPRPDIEPRP,0.0242
20,RRIRSRPPRLPRPRPRPHMDPRP,-0.427
21,RRIRYRPPRLPRPRPRPKCMPRP,-0.841
22,RRIRVRPPRLPRPRPRPSFCPRP,0.212
23,RRIRSRPPRLPRPRPRPTSYPRP,-0.0485
24,RRIRFRPPRLPRPRPRPDTCPRP,-0.21
25,RRIRKRPPRLPRPRPRPPFWPRP,1.2

row,Sequence,shrunken log2 fold change
1,RRIRPRPPRLPRPRPRPADYPRP,0.0631
2,RRIRHRPPRLPRPRPRPSINPRP,-0.605
3,RRIRYRPPRLPRPRPRPHNDPRP,-0.692
4,RRIRHRPPRLPRPRPRPETEPRP,0.105
5,RRIRIRPPRLPRPRPRPGKQPRP,-0.0943
6,RRIRKRPPRLPRPRPRPWLFPRP,0.202
7,RRIRLRPPRLPRPRPRPCSRPRP,0.06
8,RRIRPRPPRLPRPRPRPMRDPRP,0.467
9,RRIRYRPPRLPRPRPRPLMYPRP,-0.48
10,RRIRCRPPRLPRPRPRPCESPRP,-0.0611
11,RRIRNRPPRLPRPRPRPQVGPRP,0.00312
12,RRIRVRPPRLPRPRPRPCCPPRP,-0.25
13,RRIRRRPPRLPRPRPRPALPPRP,0.48
14,RRIRQRPPRLPRPRPRPAAIPRP,0.111
15,RRIRERPPRLPRPRPRPHAEPRP,-0.0335
16,RRIRCRPPRLPRPRPRPTEVPRP,-0.135
17,RRIRLRPPRLPRPRPRPQYTPRP,-0.909
18,RRIRMRPPRLPRPRPRPFTQPRP,0.215
19,RRIRSRPPRLPRPRPRPPHDPRP,0.277
20,RRIRSRPPRLPRPRPRPLGFPRP,0.0335
21,RRIRPRPPRLPRPRPRPWDPPRP,-0.0945
22,RRIRTRPPRLPRPRPRPYIRPRP,-1.31
23,RRIRWRPPRLPRPRPRPRKMPRP,0.382
24,RRIRWRPPRLPRPRPRPFIPPRP,-1.15
25,RRIRLRPPRLPRPRPRPIAHPRP,-0.058
